Experimental data from patent US12624123B2, “Compositions and methods for reducing off-target toxicity of antibody drug conjugates” (The Research Foundation for The State University of New York, priority 2019, dated 2026).
Entries after “also recorded” stand apart in the source; their conditions may differ.

Legend:
LS174T cells = experiment: Competitive cell cytotoxicity assay with LS174T cells; format: cell-based
Method: Log-phase MOLM-14, Ramos (RA 1), HT-29, LS174T, or NCI-N87 cells were seeded in 96-well microtiter plates at a density of 20,000 cells/well, 20,000 cells/well, 5,000 cells/well, 5,000 cells/well, and 10,000 cells/well, respectively, in 100 μL of culture medium. HT-29, LS174T, and NCI-N87 cells were allowed to adhere for 24 h before cell culture media was aspirated and replaced with 100 μL of fresh media containing a range of treatment for, 48 (LS174T), 96 (NCI-N87), or 120 (HT-29) h. MOLM-14 and Ramos cells were re-suspended with treatment solutions, where 100 μL of cell-treatment suspension was aliquoted into wells of a 96-well plate for 24 h. Treatment solutions consisted of calicheamicin, MMAE, topotecan, or SN38 with or without immunized animal plasma, purified anti-drug antibody, or antibody-drug conjugate (ADC) with or without plasma or anti-drug antibody. For MOLM-14 and Ramos cells, 25 μL of MTT solution (5 mg/mL in pH 7.4 1× PBS) was added directly to wells following treatment incubation. For adherent cells, treatment media was aspirated from wells and cells were washed three times with 100 μL of fresh media. Following the final wash, 100 μL of complete media and 25 μL of MTT solution were added to each well. Cells were incubated for 4 h in order to allow cells to reduce MTT to formazan dye. […] Formazan dye was measured at 570 nm and normalized by cell debris at 690 nm.

8C2 mAb = experiment: Competitive ELISA of 8C2 with topotecan and SN38 (BSA-topotecan coated); format: binding, murine; conditions: 8C2 held constant at 10 nM; read-out: IC50 in competitive ELISA vs intact 8C2
Method: A competitive ELISA was employed to determine the affinity of intact 8C2 mAb for SN38 and topotecan. A BSA-topotecan conjugate was synthesized and immobilized as previously described (Shah et al., Int J Pharm. 2014; 465(1-2):228-238. doi:10.1016/j.ijpharm.2014.01.038) 8C2 concentration was held constant at 10 nM with increasing concentrations of topotecan or SN38. 8C2 drug samples were incubated for 2 hours at room temperature with agitation. Following incubation, wells were washed three times with 250 μL of PBS-T and three times with dH2O. Wells were then incubated with a 1:500 dilution anti-mouse AP conjugate secondary in PBS-T with 3% BSA for 1 h. After washing, 250 μL of 4 mg/ml PNPP in diethanolamine buffer pH 9.8 with absorbance being read at 405 nm. The change in absorbance over time data was fit to a four-parameter function in GraphPad Prism 7.

[1] = SPR dissociation screening on DM1-Biotin chip; format: binding; conditions: 20 min dissociation phase
Method: Preliminary screening of DM1/4 binders were performed using a neutravidin SPR chip with DM1-Biotin on the left channel. Phagemid purified sdAbs were flowed over the SPR chip for 2 minutes at a flow rate of 25 ul/min. After binding, sdAb was dissociated for 20 minutes. Observed sensorgrams were fit to an individual dissociation rate constant for each construct. Equilibrium and kinetic binding of 3A2 was assessed using a CM5 SPR chip with TDM1 immobilized on the left channel. […] Rate constants for 3A2-TDM1 association and dissociation were obtained through fitting of the observed sensorgrams for the 1.25, 2.5, 5, 7.5 and 10 nM injections to a 1:1 Langmuir binding model.

Trastuzumab deruxtecan = experiment: Indirect ELISA of purified sdAb on trastuzumab deruxtecan; format: binding
From the text: FIG. 16. SDS-PAGE and Indirect ELISA.
FIG. 18. SDS-PAGE and Indirect ELISA.

[2] = sdAb CG4 ELISA and Dynabeads binding assay; conditions: for actual fold reduction considering background: 10 μM calicheamicin
Method: Nunc Maxisorp 96-well plates were coated with 4 μg/ml Cetuximab or Cetuximab-calicheamicin, or 5 μg/ml Avidin. Plates were washed three times with PBST and three times with dH2O, and blocked with MPBS for 2 h at RT. For the Avidin coated plates, plates were washed three times with PBST and incubated with 1 μM Biotin-Calicheamcin. Plates were then washed three times with PBST and incubated with increasing concentration of purified sdAb CG4 (G4 from FIG. 25) at RT for 2 h, with or without pre-incubation with free Calicheamicin at 10 μM. Plates were then washed three times with PBST, where bound sdAb was detected using an anti-His tag HRP-conjugated Ab diluted 1:1000 in MPBST. Following incubated and five washed with PBST, 100 μL of 1-Step Turbo TMB-ELISA solution was added to each well and incubated for 30 minutes. The reaction was quenched by adding 100 μL of Stop solution to each well and absorbance was measured at 450 nm. Alternatively, wells can also be incubated with 1:1000 diluted anti-His tag AP-conjugated Ab, instead of HRP conjugated Ab. After washing, 4 mg/ml PNPP in diethanolamine buffer pH 9.8 with absorbance being read at 405 nm.
Calicheamicin conjugated dynabeads were washed with PBST and blocked with MPBS for 30 min. Beads were washed three times with PBST and incubated with sdAb for 30 minutes. Bound sdAb were detected with 1:1000 diluted anti-His tag HRP-conjugated Ab. After washed with PBST, beads were resuspended with 500 μL of 1-Step Turbo TMB-ELISA solution and incubated for 30 minutes. The reaction was quenched by adding Stop solution, and absorbance was measured at 450 nm.

[3] = Screening of llama sdAb phage clones against calicheamicin conjugates (FIG. 25); format: binding
Method: A master plate was generated by inoculating a single colony into wells of a 96-well round-bottom culture plate filled with […] 2×TY supplemented with 100 μg/mL ampicillin, 2% (wt/vol) glucose and 10% (vol/vol) glycerol, and grown overnight at 37° C. These wells were then used to inoculate wells of 96-deepwell plates containing 1 mL of 2×TY medium (100 μg/mL ampicillin+0.1% (wt/v) glucose per well). Plates were incubated them for 3 h at 37° C. and 250 rpm until OD600≈0.5. Nanobody expression was induced with 4 μL of 0.5 M IPTG per well (final concentration of 2 mM) and incubated for an additional 15-24 h at 37° C. and 250 rpm. Nunc Maxisorp 96-well plates were coated as described previously. Plates were washed three times with PBST and blocked with MPBS for 2 h at RT. […] Plates were then washed three times with PBST, where bound phage was detected using an anti-HA tag HRP-conjugated Ab diluted 1:1000 in PBST. Following incubated and five washed with PBST, 100 μL of 1-Step Turbo TMB-ELISA solution was added to each well and incubated for 30 minutes. The reaction was quenched by adding 100 μL of Stop solution to each well and absorbance was measured at 450 nm.
50 μl Dynabeads-calicheamicin were blocked with MPBS (PBS+2% non-fat dry milk) at RT for 30 minutes. Following pre-incubation with 1:50 preimmunized llama plasma, phage solutions were incubated with beads at RT for 30 minutes. […]

Ramos cells = experiment: MTT cytotoxicity of calicheamicin on Ramos cells; format: cell-based; conditions: 24 h
Method: (§1) Log-phase MOLM-14, Ramos (RA 1), HT-29, LS174T, or NCI-N87 cells were seeded in 96-well microtiter plates at a density of 20,000 cells/well, 20,000 cells/well, 5,000 cells/well, 5,000 cells/well, and 10,000 cells/well, respectively, in 100 μL of culture medium. HT-29, LS174T, and NCI-N87 cells were allowed to adhere for 24 h before cell culture media was aspirated and replaced with 100 μL of fresh media containing a range of treatment for, 48 (LS174T), 96 (NCI-N87), or 120 (HT-29) h. MOLM-14 and Ramos cells were re-suspended with treatment solutions, where 100 μL of cell-treatment suspension was aliquoted into wells of a 96-well plate for 24 h. Treatment solutions consisted of calicheamicin, MMAE, topotecan, or SN38 with or without immunized animal plasma, purified anti-drug antibody, or antibody-drug conjugate (ADC) with or without plasma or anti-drug antibody. For MOLM-14 and Ramos cells, 25 μL of MTT solution (5 mg/mL in pH 7.4 1× PBS) was added directly to wells following treatment incubation. For adherent cells, treatment media was aspirated from wells and cells were washed three times with 100 μL of fresh media. Following the final wash, 100 μL of complete media and 25 μL of MTT solution were added to each well. Cells were incubated for 4 h in order to allow cells to reduce MTT to formazan dye. Once MTT was reduced, 100 μL of 10% SDS prepared in 0.01 M HCl was added to each well and incubated overnight to solubilize the formazan crystals. Formazan dye was measured at 570 nm and normalized by cell debris at 690 nm.
(§2) Fresh media containing a range of treatment were pre-incubated with or without 100 μM purified sdAb at room temperature for 30 minutes. Log-phase MOLM-14 cells were seeded in 96-well microtiter plates at a density of 20,000 cells/well, and were re-suspended with treatment solutions, where 100 μL of cell-treatment suspension was aliquoted into wells of a 96-well plate for 24 h. 25 μL of MTT solution (5 mg/mL in pH 7.4 1× PBS) was added directly to wells following treatment incubation. […] Formazan dye was measured at 570 nm and normalized by cell debris at 690 nm.

MOLM-14 cells = experiment: MTT cytotoxicity of calicheamicin on MOLM-14 cells; format: cell-based, human; conditions: 24 h, 100 μM peptide or sdAb
Method: as §1, §2

For `CC[C@@]1(O)C(=O)OCc2c1cc1n(c2=O)Cc2cc3c(CN(C)C)c(O)ccc3nc2-1` [topotecan, reference compound], the “topotecan concentration at which significant cell death was observed” value (LS174T cells; absence of 8C2 or 8C2 scFv) was 2.5 nM and the IC50 (8C2 mAb) was 9.3 nM.

B1: 8C2 scFv (protein)
scFv: EVQLQQSGAELVKPGASVKLSCTASGFNIKDTYIHWVKQRPEQGLEWIGMIDLANDNTKYDPKFQGKATIITDTSSNKAYLQVSSLTSEDTAVYYCATWGAIITLGGWGQGTLVTVSAAKGGGGSGGGGSGGGGSGGGGSDIQMTQSPASLSASVGETVTITCRASGNIHNSLAWYQQIKGRSPQLLVYNAKTLADGVPSRFSGSGSGTQYSLKINSLHPEDFGSYYCQHFWSTPFTFGSGTKLEIKRENLYFQG
modifications: 8C2 scFv
For B1, the “effect on topotecan cytotoxicity” value (LS174T cells; topotecan with 8C2 mAb or scFv) was “right-shifted; also recorded: increased the viability”.

B2: DT3H3 (protein)
VHH: EVQLVESGGGLVQPGGSLRLSCAASGRTFSHDHMGWFRQAPGKEREFVAAISWTSSTYYGDSVKGRFTISRSNAKNTVYLQMNSLKPEDTAIYYCSWGVGYWGQGTQVTVSS
With B2 the dissociation kinetics [1] was “longest dissociation rates; also recorded: longer dissociation rates”.

B3: TA2 (protein)
VHH: QVQLQESGGGLVQPGGSLRVSCAASGFTFSSYYMSWVRQAPGKGLEWVSAINTGTGSTYYADSVKGRFTISSDNAKNTVYLQMSSLKPEDTALYYCARSSLEGRVEKPYDYWGQGTQVTVSS
modifications: TA2 clone
In the case of B3, the “binding to trastuzumab deruxtecan” value (Trastuzumab deruxtecan) is reported as “concentration-dependent binding”.

B4: CG4: Anti-Calicheamicin sdAb, SEQ ID NO:12 (protein)
VHH: QVQLQESGGGLVQAGGSLRLSCAASGRTISGYAMGWFRQAPGKERDLVAAISRSGTSTYYADSVKGRFTISRDNAKNTVYLQMNSLKPEDTAVYYCNAPGGIWGQGTQVTVSS
modifications: CG4
For B4, the “fold decrease of CG4 binding signal by 10 μM calicheamicin” value ([2]; avidin (biotin-calicheamicin) coated plates, 64 μM CG4) was 2 fold, the “actual fold reduction considering background” value ([2]; avidin coated plates) was roughly 4.3 fold and the “binding to calicheamicin conjugates vs CG4 concentration” value ([2]; cetuximab-calicheamicin ELISA and Dynabeads-calicheamicin) was “apparent calicheamicin binding with increasing concentration; also recorded: increased with increasing concentration”. The “actual fold reduction considering background” value ([2]; cetuximab-calicheamicin coated plates) was “around 3.3 fold”, the “effect of 1 μM free calicheamicin on clone binding” value ([3]; rescreen of five colonies) was “only clone inhibited; also recorded: loss of binding signal” and the binding to dynabeads-calicheamicin ([3]; single colonies) was “high binding”. For the same molecule, the “fold inhibition of calicheamicin cytotoxicity (IC50 shift)” value (Ramos cells) was 6.34 fold and the “fold change of calicheamicin IC50” value (MOLM-14 cells) was 15.4 fold.

B5: TF7 (protein)
chain: QVQLQESGGGLAQPGGSLRVSCATSGFTFSSNYYISWVRQAPGRGLEWVSAINTGDGSTYYAHSVKGRFTISRDNAKNTLYLQMNSLKPEDTALYYCARSSLEGRIEKPYDYWGQGTQVTVSS
modifications: TF7 clone
With B5 the “binding to trastuzumab deruxtecan” value (Trastuzumab deruxtecan) was “concentration-dependent binding”.
